Changes are numbered by the printed parent chain.
B1: mAb10934 (antibody, V domains shown)
VH: not shown
VL: DIQMTQSPSSLSASVGDRVTITCQASQDIWNYINWYQQKPGKAPKLLIYDASNLKTGVPSRFSGSGSGTDFTFTISSLQPEDIATYYCQQHDDLPPTFGQGTKVEIKR
B2: mAb10938 (antibody, V domains shown)
VH: EVQLVESGGGLVQPGGSLRLSCAVSGFTVSSNYMSWVRQAPGKGLEWVSLIYSGGSTFYADSVKGRFTISRHNSKNTLYLQMNSLRAEDTAVYYCAREGGYSYDYNYWGQGTLVTVSS
VL: B1 VL with W30R, I33L, K55E, S65I, H91Y, D93N, P96I, K103R, V104L
B3: mAb10935 (antibody, V domains shown)
VH: EVQLVESGGGLVQPGGSLRLSCAASGFTVSSNYMSWVRQAPGKGLEWVSLIYSGGSTYYADSVKGRFTISRHNSKNTLYLQMNSLRSEDTAVYYCARVPLGDYYYGMDVWGQGTTVTVSS
VL: B1 VL with W30N, N31K, I33L, K55E, H91S, D93N, P96L, Q100G
B4: mAb10923 (antibody, V domains shown)
VH: QVQLVQSGAEVKKPGASVKVSCKASGYTFINYYIHWVRQAPGQGLEWMGWINPNSGGTNYAQKFQGRVTMTRDTSISTAYMELSRLRSDDTAVYYCAIITIFGVVTWFDPWGQGTLVTVSS
VL: not shown
B5: mAb10930 (antibody, V domains shown)
VH: EVQLVESGGGLVQPGRSLRLSCAASGFTFDDYAMYWVRQAPGKGLEWVSGISWNSGSIGYADSVKGRFTISRDNAKNSLYLQMNSLRAADTALYYCAKDKDWNSRGYYYYGMDVWGQGTTVTVSS
VL: not shown
B6: mAb10921 (antibody, V domains shown)
VH: EVQLVESGGGLVQPGGSLRLSCAASGITVSSNYMSWVRQAPGKGLEWVSVIYSGGSTFYADSVKGRFTISRHNSKNTLYLQMNSLRAEDTAVYYCARERNFDAFDIWGQGTMVTVSS
VL: DIQMTQSPSSVSASVGDRVTITCRASQGISSWLAWYQQKPGKAPKLLIYAASSLQSGVPSRFSGSGSGTDFTLTISSLQPEDFATYYCQQANSFPLFTFGPGTKVDIKR
B7: mAb10969 (antibody, V domains shown)
VH: QVQLVESGGGVVQPGRSLRLSCAASGFTFSSYAMHWVRQAPGKGLEWVAVISYDGSNKYYADSVKGRFTISRDNSKNTLYLQMNSLRAEDTAVYYCARDGRTITMVRGVIDDAFDIWGQGTMVTVSS
VL: not shown
B8: mAb10971 (antibody, V domains shown)
VH: EVQLVESGGGLIQPGGSLRLSCAASGVTVSSNYMSWVRQAPGKGLEWVSVIYSGGSTFYSDSVKGRFSISRDNSKNTLYLQMNSLRAEDTAVYYCARDLYYYGMDVWGQGTTVTVSS
VL: DIQLTQSPSFLSASVGDRVTITCRASQGISTYLAWYQQKPGKAPKLLIYAASTLQSGVPSRFSGSGSGTEFTLTISSLQPEDFATYYCQQLDSYPGLTFGGGTKVEIKR
B9: mAb10936 (antibody, V domains shown)
VH: QVQLVESGGGVVQPGRSLRLSCAASGFTFRNYGMHWVRQAPGKGLEWVSVIWYDGSNRYYADSVKGRFTISRDTSKNTLYLQMNSLRAEDTAVYYCARDPPITGTTGGDAFDIWGQGTMVTVSS
VL: not shown
B10: mAb10932 (antibody, V domains shown)
VH: EVQLVESGGGLVQSGGSLRLSCAASGLTVSSNYMSWVRQAPGKGLEWVSVIYSGGSTFYSDSVKGRFTISRHNSKNTLYLQMNSLRAEDTAVYYCARARGDAFDIWGQGTMVTVSS
VL: not shown
B11: mAb10937 (antibody, V domains shown)
VH: QITLKESGPTLVKPTQTLTLTCTFSGFSLSTNVVGVGWIRQPPGKALEWLALIYWNDDKRYSPSLKSRLTITKDTSKNQVVLTMTNMDPVDTATYYCAHGPTGDYFDYWGQGTLVTVSS
VL: not shown
B12: mAb10984 (antibody, V domains shown)
VH: EVQLVESGGGLVQPGGSLRLSCAASGLTVNRNYMSWVRQAPGKGLEWVSLIYSGGSTYYADSVKGRFTISRDNSKNTLYLQMNSLRLEDTAVYYCARGELGIPYGMDVWGQGTTVTVSS
VL: QSVLTQPPSVSAAPGQKVTISCSGSSSNIGNNYVSWYQQLPGTAPKLLIYDNNKRPSGIPDRFSGSKSGTSATLGITGLQTGDEADYYCGTWDSSLSAGVFGGGTKLTVLG
B13: mAb10915 (antibody, V domains shown)
VH: EVQLVESGGGLVQPGGSLRLSCAASGFTVSSNYMNWVRQAPGKGLEWVSVIYSGGSTFYADSVKGRFTISRHNSKNTLYLQMNSLRPEDTAVYYCARDLGGYFDYWGQGTLVTVSS
VL: not shown
B14: mAb10982 (antibody, V domains shown)
VH: EVQLVESGGGLVQPGGSLRLSCAASGLTVSSNYMSWVRQAPGKGLEWVSVIYSGGTTYYADSVKGRFTISRHNSKNTLSLQMNSLRAEDTAVYYCARGEGANYYGMDVWGQGTTVTVSS
VL: QSVLTQPPSVSGAPGQRVTISCTGSSSNIGTGYDVHWYQQLPGTAPKLLIYGNSNRPSGVPDRFSGSKSGTSASLAITGLQAEDEADYYCQSYDSSLSGYVVFGGGTKLTVLG
B15: mAb10985 (antibody, V domains shown)
VH: EVQLVESGGGLVQPGRSLRLSCAASGFTFDDYAMHWVRQAPGKGLEWVSGISWNRGSIGYADSVKGRFTISRDNAKNSLYLQMSSLRAEDTALYYCAKDGERWDSVVVPSARNGMDVWGQGTTVTVSS
VL: B14 VL with T31A, Y100S, V101Y, G105T, L109V
B16: mAb10986 (antibody, V domains shown)
VH: EVQLVESGGGLVQPGGSLRLSCAASEFTVSSNYMSWVRQAPGKGLEWVSVIYSGGSTFYADSVKGRFTISRDNSKNTLYLQMNSLRAEDTAVYYCARALPYGDLHFDYWGQGTLVTVSS
VL: B14 VL with S54T, G99D, Y100S, V101Y, G105T, L109V
B17: mAb10989 (antibody, V domains shown)
VH: QVQLVQSGAEVKKPGASVKVSCKASGYIFTGYYMHWVRQAPGQGLEWMGWINPNSGGANYAQKFQGRVTLTRDTSITTVYMELSRLRFDDTAVYYCARGSRYDWNQNNWFDPWGQGTLVTVSS
VL: QSALTQPASVSGSPGQSITISCTGTSSDVGTYNYVSWYQQHPGKAPKLMIFDVSNRPSGVSDRFSGSKSGNTASLTISGLQAEDEADYYCSSFTTSSTVVFGGGTKLTVLG
B18: mAb10920 (antibody, V domains shown)
VH: QVQLVESGGGVVQPGRSLRLSCAASGFTFSYYGMHWVRQAPGKGLEWVAVIWYDGSNKFYADSVKGRFTISRDNSKNTLYLQMNSLRAEDTAVYYCAAARPGYYYGMDVWGQGTTVTVSS
VL: DIQMTQSPSSLSASVGDRVTITCRASQGISNYLAWFQQKPGKAPNSLIYAASSLQRGVPSKFSGSGSGTDFTLTISSLQPEDFATYYCQQYNSYPRTFGQGTKVEIKR
B19: mAb10939 (antibody, V domains shown)
VH: EVQLVESGGGLVQPGGSLRLSCAASGLTVSSNYMNWVRQVPGKGLEWVSVIYSGGSKFYVDSVKGRFTISRHNSKNTLYLQMNSLRPEDTAVYYCTRDAQYYGMDVWGQGTTVTVSS
VL: DIQMTQSPSSLSASVGDRVTITCRASQSISTYLHWYQQKPGEAPKLLIYAASSLQSGVPSRFSGSGSGTDFTLTISSLQPEDFATYYCQQSYSTPPEIFGQGTKLEIKR

The binders below were run against SARS-CoV-2 RBD-hFc (SARS-CoV-2) (assay: Luminex beads).

| Binder | binding result |
| --- | --- |
| B1 | binds |
| B2 | binds |
| B3 | binds |
| B4 | binds |
| B5 | binds |
| B6 | binds |
| B7 | binds |
| B8 | binds |
| B9 | binds |
| B10 | binds |
| B11 | binds |
| B12 | binds |
| B13 | binds |
| B14 | binds |
| B15 | binds |
| B16 | binds |
| B17 | binds |
| B18 | binds |
| B19 | binds |

Source: patent publication US20240043504A1 (published 2024)
